Target: T1, Prostacyclin synthase (PTGIS), truncated, His-tagged, with Avi-tag, biotinylated (UniProt Q16647 1-500, biotin (in vivo biotinylation of the Avi-tag))
T1 construct: Prostacyclin synthase (PTGIS; EC 5.3.99.4), truncated (by the membrane domain); Held on the streptavidin (SA) chip; also called biotinylated PTGIS; PTGIS immobilized on the optical chip; source: E. coli BL21(DE3), purified (Ni-NTA, SEC)
T1 sequence (looked up): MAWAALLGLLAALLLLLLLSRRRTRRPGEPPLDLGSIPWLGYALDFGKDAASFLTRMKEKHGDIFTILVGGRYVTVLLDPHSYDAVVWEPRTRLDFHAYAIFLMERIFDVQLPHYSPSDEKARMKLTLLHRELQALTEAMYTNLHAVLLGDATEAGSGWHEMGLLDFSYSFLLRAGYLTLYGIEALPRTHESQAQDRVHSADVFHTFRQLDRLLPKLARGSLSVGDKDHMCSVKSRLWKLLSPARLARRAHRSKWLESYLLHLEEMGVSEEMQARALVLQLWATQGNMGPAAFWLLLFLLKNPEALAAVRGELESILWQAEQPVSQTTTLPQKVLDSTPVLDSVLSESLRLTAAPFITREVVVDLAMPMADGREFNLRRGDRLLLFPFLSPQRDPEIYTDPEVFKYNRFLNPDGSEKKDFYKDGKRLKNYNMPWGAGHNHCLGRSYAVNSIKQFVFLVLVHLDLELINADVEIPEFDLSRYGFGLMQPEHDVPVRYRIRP
Assay: SPR; biotinylated PTGIS on a streptavidin (SA) chip, purified protein injected as analyte; 25 °C, Biacore T-200
Conditions: both partners purified

Kd: 200 nM
B1: Cytochrome P450 2J2 (CYP2J2), truncated and His-tagged (enzyme)
chain: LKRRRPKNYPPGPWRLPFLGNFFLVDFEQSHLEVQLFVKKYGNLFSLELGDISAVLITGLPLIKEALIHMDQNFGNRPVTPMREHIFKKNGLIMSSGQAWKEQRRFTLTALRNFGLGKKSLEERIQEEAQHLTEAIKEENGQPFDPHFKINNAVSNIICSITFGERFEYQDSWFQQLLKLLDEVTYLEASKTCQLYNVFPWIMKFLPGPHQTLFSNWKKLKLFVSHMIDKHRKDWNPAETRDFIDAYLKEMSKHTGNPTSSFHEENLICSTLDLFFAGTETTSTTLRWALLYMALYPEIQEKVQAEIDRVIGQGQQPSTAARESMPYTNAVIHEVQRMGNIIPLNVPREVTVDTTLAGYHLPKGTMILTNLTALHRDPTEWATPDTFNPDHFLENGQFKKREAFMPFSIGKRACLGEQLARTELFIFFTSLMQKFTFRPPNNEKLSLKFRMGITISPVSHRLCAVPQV

Reference: article PMC6628129 (Biology, 2019)
